Measured values published in article doi:10.1101/2025.01.09.632101.

Molecular target: DPEP1-Avi: porcine DPEP1 ectodomain (residues 17-385) with Strep and Avi tags, biotinylated (porcine (Sus scrofa)) (UniProt P22412)
Experiment: BLI

Sequence of UniProt P22412 (P22412 17-385): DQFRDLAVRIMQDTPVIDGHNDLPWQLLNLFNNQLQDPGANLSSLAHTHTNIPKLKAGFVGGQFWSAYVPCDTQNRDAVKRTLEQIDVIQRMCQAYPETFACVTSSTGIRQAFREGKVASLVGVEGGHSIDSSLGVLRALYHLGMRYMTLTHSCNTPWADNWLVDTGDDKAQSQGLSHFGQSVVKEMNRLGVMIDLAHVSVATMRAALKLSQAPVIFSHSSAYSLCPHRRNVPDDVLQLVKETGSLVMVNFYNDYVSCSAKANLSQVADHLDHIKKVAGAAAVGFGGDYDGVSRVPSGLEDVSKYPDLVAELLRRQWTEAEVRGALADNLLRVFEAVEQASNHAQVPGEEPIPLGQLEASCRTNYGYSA

Question: How did the Kd turn out when “PHEV spike RBD (residues 327-605), from Expi293F cells, with His, Strep and Avi tags (domain or fragment)” was run?
Answer: 1.5 µM
